Measured values from IntAct's records for PubMed 10798620.

Columns and labels:
[1] = target: gdir_arath GDI1 (UniProt Q9SFC6)
[2] = target: gdir_arath GDI1 (UniProt Q9SFC6); remark: listed apart in the source

Chain of gdir_arath GDI1 (Q9SFC6 whole entry): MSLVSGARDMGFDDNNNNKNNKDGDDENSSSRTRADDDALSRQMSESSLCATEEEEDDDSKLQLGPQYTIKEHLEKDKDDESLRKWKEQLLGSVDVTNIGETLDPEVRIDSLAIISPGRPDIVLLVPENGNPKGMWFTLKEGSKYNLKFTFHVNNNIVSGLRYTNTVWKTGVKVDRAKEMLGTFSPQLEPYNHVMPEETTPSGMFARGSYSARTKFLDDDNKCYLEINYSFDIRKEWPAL
Chain of Rac-like GTP-binding protein ARAC3 (Arabidopsis thaliana (Mouse-ear cress)), Q38912 T20N (Q38912 whole entry T20N): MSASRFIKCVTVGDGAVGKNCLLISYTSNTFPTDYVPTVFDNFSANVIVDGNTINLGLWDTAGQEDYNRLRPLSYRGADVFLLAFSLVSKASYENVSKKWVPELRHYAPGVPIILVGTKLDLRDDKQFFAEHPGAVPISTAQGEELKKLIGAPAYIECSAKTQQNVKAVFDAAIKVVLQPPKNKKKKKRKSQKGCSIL
Chain of Rac-like GTP-binding protein ARAC5 (Arabidopsis thaliana (Mouse-ear cress)), Q38937 T20N (Q38937 whole entry T20N): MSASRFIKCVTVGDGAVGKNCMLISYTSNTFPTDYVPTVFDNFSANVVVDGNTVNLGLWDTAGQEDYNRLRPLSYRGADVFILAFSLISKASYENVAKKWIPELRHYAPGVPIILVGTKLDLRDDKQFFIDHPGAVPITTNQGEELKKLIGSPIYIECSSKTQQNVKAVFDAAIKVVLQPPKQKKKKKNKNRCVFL

effect of a mutation on the interaction [1]	effect of a mutation on the interaction [2]	Substance
disrupting interaction	–	Rac-like GTP-binding protein ARAC5 (Arabidopsis thaliana (Mouse-ear cress)), Q38937 T20N
–	disrupting interaction	Rac-like GTP-binding protein ARAC3 (Arabidopsis thaliana (Mouse-ear cress)), Q38912 T20N
